# US20160272683A1 (Novo Nordisk, published 2016)
# Numbered stars: 1 amine (or outer) side, 2 acyl side, 3 side chain; on linkers, the order of the positions; unused ones are H or OH. Ends that are not written are not given here. * marks the point of attachment. C20 diacid = O=C(O)CCCCCCCCCCCCCCCCCCC(=O)*; γGlu = O=C(O)[C@H](CCC(=O)[*:2])N[*:1]
# T1: human calcitonin receptor (human, UniProt P30988 25-474)
# T1 construct: whole, on cells; also called hCT-R; hCTR
# T1 sequence (looked up): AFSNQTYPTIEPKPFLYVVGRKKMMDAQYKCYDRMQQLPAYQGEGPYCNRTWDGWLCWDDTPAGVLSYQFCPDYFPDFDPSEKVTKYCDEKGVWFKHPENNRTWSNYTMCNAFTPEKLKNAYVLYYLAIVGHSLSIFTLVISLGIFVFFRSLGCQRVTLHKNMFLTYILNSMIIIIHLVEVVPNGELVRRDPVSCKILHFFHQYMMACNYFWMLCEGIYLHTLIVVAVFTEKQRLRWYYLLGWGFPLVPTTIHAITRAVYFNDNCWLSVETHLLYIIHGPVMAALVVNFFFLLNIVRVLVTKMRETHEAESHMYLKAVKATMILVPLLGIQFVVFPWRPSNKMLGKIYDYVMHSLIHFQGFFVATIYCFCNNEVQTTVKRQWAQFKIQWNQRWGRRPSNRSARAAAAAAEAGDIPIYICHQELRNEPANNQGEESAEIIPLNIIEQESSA
# Target: T1, human calcitonin receptor
# Assay: whole-cell competition vs 125I-human calcitonin (Assay VIIa)
# Procedure, shortened: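 BHK tk'ts 13 cells stably co-expressing human calcitonin receptor and a CRE-luciferase reporter, seeded overnight at 37 °C. Bound tracer counted by scintillation after cold HBSS washes and NaOH/SDS lysis; IC₅₀ from one-site competition fit taken as receptor affinity.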
row,IC50,Binder
1,1.25 nM,"{C20 diacid-γGlu}-ASELSTAALGRLSAELHELATLPRTETGSGSA-NH2 (SMILES CC(C)C[C@H](NC(=O)[C@H](C)NC(=O)[C@H](C)NC(=O)[C@@H](NC(=O)[C@H](CO)NC(=O)[C@H](CC(C)C)NC(=O)[C@H](CCC(=O)O)NC(=O)[C@H](CO)NC(=O)[C@H](C)NC(=O)CC[C@H](NC(=O)CCCCCCCCCCCCCCCCCCC(=O)O)C(=O)O)[C@@H](C)O)C(=O)NCC(=O)N[C@@H](CCCNC(=N)N)C(=O)N[C@@H](CC(C)C)C(=O)N[C@@H](CO)C(=O)N[C@@H](C)C(=O)N[C@@H](CCC(=O)O)C(=O)N[C@@H](CC(C)C)C(=O)N[C@@H](Cc1c[nH]cn1)C(=O)N[C@@H](CCC(=O)O)C(=O)N[C@@H](CC(C)C)C(=O)N[C@@H](C)C(=O)N[C@H](C(=O)N[C@@H](CC(C)C)C(=O)N1CCC[C@H]1C(=O)N[C@@H](CCCNC(=N)N)C(=O)N[C@H](C(=O)N[C@@H](CCC(=O)O)C(=O)N[C@H](C(=O)NCC(=O)N[C@@H](CO)C(=O)NCC(=O)N[C@@H](CO)C(=O)N[C@@H](C)C(N)=O)[C@@H](C)O)[C@@H](C)O)[C@@H](C)O, also called Ex. #65) [[N-terminal(C20 diacid-gGlu), des1, 30S, 31G, 33A]mimylin]"
2,2.6 nM,"{C20 diacid-γGlu}-ASELSTAALGRLSAELHELATLPRTETGSGSS-NH2 (SMILES CC(C)C[C@H](NC(=O)[C@H](C)NC(=O)[C@H](C)NC(=O)[C@@H](NC(=O)[C@H](CO)NC(=O)[C@H](CC(C)C)NC(=O)[C@H](CCC(=O)O)NC(=O)[C@H](CO)NC(=O)[C@H](C)NC(=O)CC[C@H](NC(=O)CCCCCCCCCCCCCCCCCCC(=O)O)C(=O)O)[C@@H](C)O)C(=O)NCC(=O)N[C@@H](CCCNC(=N)N)C(=O)N[C@@H](CC(C)C)C(=O)N[C@@H](CO)C(=O)N[C@@H](C)C(=O)N[C@@H](CCC(=O)O)C(=O)N[C@@H](CC(C)C)C(=O)N[C@@H](Cc1c[nH]cn1)C(=O)N[C@@H](CCC(=O)O)C(=O)N[C@@H](CC(C)C)C(=O)N[C@@H](C)C(=O)N[C@H](C(=O)N[C@@H](CC(C)C)C(=O)N1CCC[C@H]1C(=O)N[C@@H](CCCNC(=N)N)C(=O)N[C@H](C(=O)N[C@@H](CCC(=O)O)C(=O)N[C@H](C(=O)NCC(=O)N[C@@H](CO)C(=O)NCC(=O)N[C@@H](CO)C(=O)N[C@@H](CO)C(N)=O)[C@@H](C)O)[C@@H](C)O)[C@@H](C)O, also called Ex. #63) [[N-terminal(C20 diacid-gGlu), des1, 30S, 31G, 33S]mimylin]"
3,1.76 nM,"{C20 diacid-γGlu}-ASELSTAALGRLSAELHELATLPRTETGSGSF-NH2 (SMILES CC(C)C[C@H](NC(=O)[C@H](C)NC(=O)[C@H](C)NC(=O)[C@@H](NC(=O)[C@H](CO)NC(=O)[C@H](CC(C)C)NC(=O)[C@H](CCC(=O)O)NC(=O)[C@H](CO)NC(=O)[C@H](C)NC(=O)CC[C@H](NC(=O)CCCCCCCCCCCCCCCCCCC(=O)O)C(=O)O)[C@@H](C)O)C(=O)NCC(=O)N[C@@H](CCCNC(=N)N)C(=O)N[C@@H](CC(C)C)C(=O)N[C@@H](CO)C(=O)N[C@@H](C)C(=O)N[C@@H](CCC(=O)O)C(=O)N[C@@H](CC(C)C)C(=O)N[C@@H](Cc1c[nH]cn1)C(=O)N[C@@H](CCC(=O)O)C(=O)N[C@@H](CC(C)C)C(=O)N[C@@H](C)C(=O)N[C@H](C(=O)N[C@@H](CC(C)C)C(=O)N1CCC[C@H]1C(=O)N[C@@H](CCCNC(=N)N)C(=O)N[C@H](C(=O)N[C@@H](CCC(=O)O)C(=O)N[C@H](C(=O)NCC(=O)N[C@@H](CO)C(=O)NCC(=O)N[C@@H](CO)C(=O)N[C@@H](Cc1ccccc1)C(N)=O)[C@@H](C)O)[C@@H](C)O)[C@@H](C)O, also called Ex. #61) [[N-terminal(C20 diacid-gGlu), des1, 30S, 31G, 33F]mimylin]"
4,1.08 nM,"{C20 diacid-γGlu}-ASELSTAALGRLSAELHELATLPRTETGTGTP-NH2 (SMILES CC(C)C[C@H](NC(=O)[C@H](C)NC(=O)[C@H](C)NC(=O)[C@@H](NC(=O)[C@H](CO)NC(=O)[C@H](CC(C)C)NC(=O)[C@H](CCC(=O)O)NC(=O)[C@H](CO)NC(=O)[C@H](C)NC(=O)CC[C@H](NC(=O)CCCCCCCCCCCCCCCCCCC(=O)O)C(=O)O)[C@@H](C)O)C(=O)NCC(=O)N[C@@H](CCCNC(=N)N)C(=O)N[C@@H](CC(C)C)C(=O)N[C@@H](CO)C(=O)N[C@@H](C)C(=O)N[C@@H](CCC(=O)O)C(=O)N[C@@H](CC(C)C)C(=O)N[C@@H](Cc1c[nH]cn1)C(=O)N[C@@H](CCC(=O)O)C(=O)N[C@@H](CC(C)C)C(=O)N[C@@H](C)C(=O)N[C@H](C(=O)N[C@@H](CC(C)C)C(=O)N1CCC[C@H]1C(=O)N[C@@H](CCCNC(=N)N)C(=O)N[C@H](C(=O)N[C@@H](CCC(=O)O)C(=O)N[C@H](C(=O)NCC(=O)N[C@H](C(=O)NCC(=O)N[C@H](C(=O)N1CCC[C@H]1C(N)=O)[C@@H](C)O)[C@@H](C)O)[C@@H](C)O)[C@@H](C)O)[C@@H](C)O, also called Ex. #74) [[N-terminal(C20 diacid-gGlu), des1, 30T, 31G, 32T]mimylin]"
5,2.33 nM,"{C20 diacid-γGlu}-ASELSTAALGRLSAELHELATLPRTETGSGSL-NH2 (SMILES CC(C)C[C@H](NC(=O)[C@H](CO)NC(=O)CNC(=O)[C@H](CO)NC(=O)CNC(=O)[C@@H](NC(=O)[C@H](CCC(=O)O)NC(=O)[C@@H](NC(=O)[C@H](CCCNC(=N)N)NC(=O)[C@@H]1CCCN1C(=O)[C@H](CC(C)C)NC(=O)[C@@H](NC(=O)[C@H](C)NC(=O)[C@H](CC(C)C)NC(=O)[C@H](CCC(=O)O)NC(=O)[C@H](Cc1c[nH]cn1)NC(=O)[C@H](CC(C)C)NC(=O)[C@H](CCC(=O)O)NC(=O)[C@H](C)NC(=O)[C@H](CO)NC(=O)[C@H](CC(C)C)NC(=O)[C@H](CCCNC(=N)N)NC(=O)CNC(=O)[C@H](CC(C)C)NC(=O)[C@H](C)NC(=O)[C@H](C)NC(=O)[C@@H](NC(=O)[C@H](CO)NC(=O)[C@H](CC(C)C)NC(=O)[C@H](CCC(=O)O)NC(=O)[C@H](CO)NC(=O)[C@H](C)NC(=O)CC[C@H](NC(=O)CCCCCCCCCCCCCCCCCCC(=O)O)C(=O)O)[C@@H](C)O)[C@@H](C)O)[C@@H](C)O)[C@@H](C)O)C(N)=O, also called Ex. #62) [[N-terminal(C20 diacid-gGlu), des1, 30S, 31G, 33L]mimylin]"

# Second part, the binder before the results:
row,Binder,IC50
1,"{C20 diacid-γGlu}-ASELSTAALGRLSAELHELATLPRTETGSGSH-NH2 (SMILES CC(C)C[C@H](NC(=O)[C@H](C)NC(=O)[C@H](C)NC(=O)[C@@H](NC(=O)[C@H](CO)NC(=O)[C@H](CC(C)C)NC(=O)[C@H](CCC(=O)O)NC(=O)[C@H](CO)NC(=O)[C@H](C)NC(=O)CC[C@H](NC(=O)CCCCCCCCCCCCCCCCCCC(=O)O)C(=O)O)[C@@H](C)O)C(=O)NCC(=O)N[C@@H](CCCNC(=N)N)C(=O)N[C@@H](CC(C)C)C(=O)N[C@@H](CO)C(=O)N[C@@H](C)C(=O)N[C@@H](CCC(=O)O)C(=O)N[C@@H](CC(C)C)C(=O)N[C@@H](Cc1c[nH]cn1)C(=O)N[C@@H](CCC(=O)O)C(=O)N[C@@H](CC(C)C)C(=O)N[C@@H](C)C(=O)N[C@H](C(=O)N[C@@H](CC(C)C)C(=O)N1CCC[C@H]1C(=O)N[C@@H](CCCNC(=N)N)C(=O)N[C@H](C(=O)N[C@@H](CCC(=O)O)C(=O)N[C@H](C(=O)NCC(=O)N[C@@H](CO)C(=O)NCC(=O)N[C@@H](CO)C(=O)N[C@@H](Cc1c[nH]cn1)C(N)=O)[C@@H](C)O)[C@@H](C)O)[C@@H](C)O, also called Ex. #60) [[N-terminal(C20 diacid-gGlu), des1, 30S, 31G, 33H]mimylin]",1.53 nM
2,"ASELTTAVLGRLEAELHELTTLPRTETGTGTP-NH2 (backbone without side chain) [[des1, 6T, 9V, 14E, 21T, 30T, 31G, 32T]mimylin]",62.9 nM
3,"ASELSTAALGHLSAELHELATLPRTETGSGSP-NH2 (backbone without side chain; also called Ex. #72bb; 72bb) [[des1, 12H, 30S, 31G]mimylin]",4.53 nM
4,"ASELTTAVLGRLSAELHELATLPRTETGTGTP-NH2 (backbone without side chain; also called Ex. #95bb; 95bb) [[des1, 6T, 9V, 30T, 31G, 32T]mimylin]",15.3 nM
5,"ASEVSTAVLGRLSAELHELATLPRTETGSGSP-NH2 (backbone without side chain; also called Ex. #86bb; 86bb) [[des1, 5V, 9V, 30S, 31G]mimylin]",0.52 nM
6,"{C20 diacid-γGlu}-ASELSTAALGRLSAELHELATLPRTETGSGSG-NH2 (SMILES CC(C)C[C@H](NC(=O)[C@H](C)NC(=O)[C@H](C)NC(=O)[C@@H](NC(=O)[C@H](CO)NC(=O)[C@H](CC(C)C)NC(=O)[C@H](CCC(=O)O)NC(=O)[C@H](CO)NC(=O)[C@H](C)NC(=O)CC[C@H](NC(=O)CCCCCCCCCCCCCCCCCCC(=O)O)C(=O)O)[C@@H](C)O)C(=O)NCC(=O)N[C@@H](CCCNC(=N)N)C(=O)N[C@@H](CC(C)C)C(=O)N[C@@H](CO)C(=O)N[C@@H](C)C(=O)N[C@@H](CCC(=O)O)C(=O)N[C@@H](CC(C)C)C(=O)N[C@@H](Cc1c[nH]cn1)C(=O)N[C@@H](CCC(=O)O)C(=O)N[C@@H](CC(C)C)C(=O)N[C@@H](C)C(=O)N[C@H](C(=O)N[C@@H](CC(C)C)C(=O)N1CCC[C@H]1C(=O)N[C@@H](CCCNC(=N)N)C(=O)N[C@H](C(=O)N[C@@H](CCC(=O)O)C(=O)N[C@H](C(=O)NCC(=O)N[C@@H](CO)C(=O)NCC(=O)N[C@@H](CO)C(=O)NCC(N)=O)[C@@H](C)O)[C@@H](C)O)[C@@H](C)O, also called Ex. #64) [[N-terminal(C20 diacid-gGlu), des1, 30S, 31G, 33G]mimylin]",3.63 nM
